From the nanobody polyreactivity screen of Harvey et al. (2022)

experiment: yeast display, Sf9 membrane polyspecificity reagent, FACS + sequencing; frameworks hold sequencing errors
Outline: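 Sorting gates, low and high (top ~1%), were placed on anti-HA fluorescence to track expression and on streptavidin fluorescence to track reagent binding. A clone's polyreactivity label is taken from the gate it came out of. The reagent was 10% biotinylated, detergent-solubilized Sf9 membrane, applied for 1 hour at 4 °C to galactose-induced yeast display cells.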

| Sequence | polyreactivity (PSR sort gate) |
| --- | --- |
| QVQLVESGGGLVQAGGSLRLSCAASGSSFAKYAMGWYRQAPGKERELVATISWSGTSTYYADSVKGRFTISRDNAKNTVYLQMNSLKPEDTAVYYCDADTECVGVNHIYDYWGQGNQVTVSS | low polyreactivity |
| QVQLVESGGGLVQAGGSLRLSCAASGSSFDIYVMGWYRQAPGKERELLAAISRVGNTSYADSVKGRFTISRDNGKNTVYLQMNKHETGIYRGHYCGAGLVGAGYITYNDYDYWGQGTQVSVSS | low polyreactivity |
| QVQLVESGGGLVQAGGSLRLSCAASGSSFDPYAMGWYRQAPGKERELVATITYSGGRTYYADSVKGRFTISRDNAKNTVYLQMNSLKPEDTAVYYCAADWDPGYYVQYGYDYWGQGTQVTVSS | low polyreactivity |
| QVQLVESGGGLVQAGGSLRLSCAASGSSFRIYAMGWYRQAPGKERELVAAISWSSGSTYYADSVKGRFTISRDNAKNTDYLPMNSLKPEDTAVYYCATYARRSGYYYWGQGTQVTVSS | high polyreactivity |
| QVQLVESGGGLVQAGGSLRLSCAASGSSFRRYAMGWYRQAPGKERELVATIRSGGSTTYADSVKGRFTISRDNAKNTVYLQMNSLKPEDTAVYFFAAGTKPSYYYWGQGTQVTVSS | low polyreactivity |
| QVQLVESGGGLVQAGGSLRLSCAASGSSFRSNDMGWYRQAPGKERELVARITSSVGSTYYADSVKGRFTISRDNAKNTVYLQMNSLKPEDTAVYYCAKRYYHYPYGYRDYDYWGQGTQVTVSS | low polyreactivity |
| QVQLVESGGGLVQAGGSLRLSCAASGSSFSSYAMGWYRQAPGKERELVASISRRGGSTYYADSVKGRFTISRDNAKNTGYLQMNSLNPEDTAVYYCNAPYAGMGYWGQGTQVTVSS | low polyreactivity |
| QVQLVESGGGLVQAGGSLRLSCAASGSSKLRLWDGIDRRLGQKGSWLPLFVLVVLRNYADSVKGRFTISSDNAKNTVYLQMNSLKPEDTAVYYCAATPIGSGGWGDYWGQGTQVTVSS | low polyreactivity |
| QVQLVESGGGLVQAGGSLRLSCAASGSSLTYNAMGWYRQAPGKERELVAVISARGGRTYYADSVKGRFTISRDNAKNTVYLQMNSLKPEDTAVYYCAAVFYYSYYRITSGDYWGQGTQVTVSS | high polyreactivity |
| QVQLVESGGGLVQAGGSLRLSCAASGSTCGTYAMGWYRQAPGKERELVATISLSGGSTYYADSVKGRFTISRDNAKNTVYLQMNSLKPEDTAVYYCTVKSSYSEYDYWGQGTQVTVSS | low polyreactivity |
| QVQLVESGGGLVQAGGSLRLSCAASGSTCSRNAMGWYRQAPGKERELVAAINYSGGITYYADSVKGRFTISRDNAKNTVYLQMNSLKPEDTAVYYGAAVATNVPTHGRPSRRAYDYWGQGTQVTVSS | low polyreactivity |
| QVQLVESGGGLVQAGGSLRLSCAASGSTCWSNAMGWYRQAPGKERELVAGISWSDGSTYADSVKGRFTISRDNAKNTVYLQMNSLKPEDTAVYYCAAADNYRGYTYEYDYWGQGTQVTVSS | low polyreactivity |
| QVQLVESGGGLVQAGGSLRLSCAASGSTFAANAMGWYRQAPGKERELFAVIRRGGSTTYADSVKGRFTISRDNAKNTVYLQMNSLKPEDTEVYYCNARVTLGRPLFTYLVRYEYWGQGTQVTVSS | high polyreactivity |
| QVQLVESGGGLVQAGGSLRLSCAASGSTFAANAMGWYRQAPGKERELVAAITSSGGSTYYADSVKGRFTISLDNEKNTVYLQMNSLKPEDTAVYYCNKDIERYVRIYDSWGQGTQVTVSS | low polyreactivity |
| QVQLVESGGGLVQAGGSLRLSCAASGSTFADNAMGWYRQAPGKERELVATITDGGSTNYADSVKGRFTISRDNAKNTVYLQMNSLKPEDTAVYYCNADTHARWTGVKGTYSDYDYWGQGTQVTVSS | low polyreactivity |
| QVQLVESGGGLVQAGGSLRLSCAASGSTFADYVMGWYRQAPGKERELVAAISRSGGSTYYADSEKGRFTISRDTAKNTVYLQTNSLKPEDTAVYYCAAVKARRYDYWGQGTQVTVSS | high polyreactivity |
| QVQLVESGGGLVQAGGSLRLSCAASGSTFAFNAMGWYRHAPGKERELVATISQSGGSTYYADSVKGRFTFSRDNAKNTVYLQKNSLKPEDTSVYYCAKRYWSKWYGRYDYWRQGTQVTVSS | low polyreactivity |
| QVQLVESGGGLVQAGGSLRLSCAASGSTFAFNAMGWYRQAPGKERELVATISQSGGSTYYADSVKGRFTISRDNAKNTVYLQMNSLKPEDTAVYYCAKRYWSKWYGRYEYWGQGTQVTVSS | low polyreactivity |
| QVQLVESGGGLVQAGGSLRLSCAASGSTFAFYDMGWYRQAPGKERELVAAISQSDGDTYYADSVKGRFTISRDNAKNTVYLQMNSLKPEDTAVYYCAAETSHNPEYERGSDYWGQGTQVTVSS | low polyreactivity |
| QVQLVESGGGLVQAGGSLRLSCAASGSTFAGNAMGWYRQAPGKERELVAGITSSGARTYYADSVKGRFTISRDNAKNTVYLQMNSLKPEDTAVYYCNKYHFSPYDYWGQGTQVTVSS | high polyreactivity |
| QVQLVESGGGLVQAGGSLRLSCAASGSTFAGYAMGWYRQAPGKERELVAAISKRGTSTYYADSVKGRFTISRDNAKNTVYLQMNSLKPEDTAVYYCAARTYASYFKLYYWGQGTQVTVSS | high polyreactivity |
| QVQLVESGGGLVQAGGSLRLSCAASGSTFAHNAMGWYRQAPGKERELVAAISRRGGSTYYADSVKGRFTISRDNAQNTVYLQMNSLKPEDTAVYYCNAVAHNVRVYRFYPGWAGLDYWGQGTQVTVSS | high polyreactivity |

| Sequence | polyreactivity (PSR sort gate) |
| --- | --- |
| QVQLVESGGGLVQAGGSLRLSCAASGSTFAHNAMGWYRQAPGKERELVATISGSGGTTRYADSVKGRFTISRDNAKNTVYLQMNSLKPEDTAGYYCAAQSSTPKLYDYWGQGTQVTVSS | low polyreactivity |
| QVQLVESGGGLVQAGGSLRLSCAASGSTFAHYAMGWYRQAPGKERELVAAITTSGSSTYYADSVKGRFTISRDNAKNTVYLQMNSLKPEDTAVYYCNARGSYYHYRGERNYWGQGTQVTVSS | low polyreactivity |
| QVQLVESGGGLVQAGGSLRLSCAASGSTFAKNAMGLYRQAPGKERELVAAISRGGNTYYADSVKGRFTISRDNAKNTVYLQMNSLKPEDTAVYYCAKLPYTRNYLGSLYDYWGQCTQVTVSS | high polyreactivity |
| QVQLVESGGGLVQAGGSLRLSCAASGSTFAKNTMGWYRQAPGKERELVAAISTSGGSTYYADSVKVRFTISRDNAKNTVYLQMNSLKPEDTAVYYCAARAFQYYRAMDYWGQGTQVTVSS | low polyreactivity |
| QVQLVESGGGLVQAGGSLRLSCAASGSTFAKYAMGWYRQAPGKERELVASIRLSGGSTYYADSVKGRFTISRDNAKNTVYLQMNSLKPEDTALYYCHKQFATFFYGFDYYYWGQGTQVTVSS | low polyreactivity |
| QVQLVESGGGLVQAGGSLRLSCAASGSTFAKYTMGWYRQAPGKERELVAAISQRGGSTYYADSVKGRFTISRDNAKNTVYLQMNSLKPEDTAVYYCNVRAYAWRYEYWGQGTQVTVSS | high polyreactivity |
| QVQLVESGGGLVQAGGSLRLSCAASGSTFALYAMGGSRPAPGKERELVAVINSGGSTYYADSVKGRFTISRDNAKNTVYLLMNSLKPEDTAVSYCATVYVWAYRGTDSSYRFDYWGKGTQVTVSS | low polyreactivity |
| QVQLVESGGGLVQAGGSLRLSCAASGSTFALYAMGWSRPAPGKERELVAAITWSGTGTYYADSVKGRFTISRDNAKNTVYLQMNSLKPEDTAVYYCNAEYWWWGLGNDYWGQGTQVTVSS | low polyreactivity |
| QVQLVESGGGLVQAGGSLRLSCAASGSTFALYGMGWYRQAPGKERELVAAINSGVSTNYADSVKGRFTISRDNAKNTVYLQMNSLKPEDTAVYYCNADYYIAPYDSWGQGTQVTVSS | low polyreactivity |
| QVQLVESGGGLVQAGGSLRLSCAASGSTFAPYAMGWYRQAPGKERELVASISWRGGRTYYADSVKGRFTISRDNAKNTVYLQMNSLKPEDTAVYYCATSRYRVDRWGPPYRYDYWGQGTQVTVSS | high polyreactivity |
| QVQLVESGGGLVQAGGSLRLSCAASGSTFARNAMGWYRPAPGKERELVAAITNAGDTNYADSVKGRFTISRDNAKNTVYLQMNSLKPEDTAVYYCAADTRFYSGRGTVSGDYWGQGTQVTVSS | low polyreactivity |
| QVQLVESGGGLVQAGGSLRLSCAASGSTFARNAMGWYRQAHGKERELVAAITNAGDTNYADSVKGRFTISRDNAKNTVYLQMNSLKPVDTAVYYCAADPILIDEYWGQGTQVTVSS | low polyreactivity |
| QVQLVESGGGLVQAGGSLRLSCAASGSTFARNAMGWYRQAPGKERELVAAISSSGGRTYYADSVKGRFTISRDNAKNTVYLQMNSLKPEDTAVYSCAARTFGSVHSYRGGYWGQGTQVTVSS | high polyreactivity |
| QVQLVESGGGLVQAGGSLRLSCAASGSTFARNAMGWYRQAPGKERELVAAITNAGDTNYADSVKGRFTISRDNAKNTVYLQMNSLKPEDTAVYYCAAEPILIDEYWGQGTQVTVSS | low polyreactivity |
| QVQLVESGGGLVQAGGSLRLSCAASGSTFARYAMGWYRQAPGKERELVAAISGGGGSTYYADSVKGRFTISRDNAKNTVYLQMNSLKPEDTAVYYCAKLLARGNRYDSWGQGTQVTVSS | high polyreactivity |
| QVQLVESGGGLVQAGGSLRLSCAASGSTFARYAMGWYRQAPGKERELVAAISRRGGSTYYADSVKGRFTISRDNAKNTVYLQMNSLKPEDTAVYYCAARYGIISSFEYDYWGQGTQVTVSS | high polyreactivity |
| QVQLVESGGGLVQAGGSLRLSCAASGSTFARYAMGWYRQAPGKERELVAAISRSGSNTYYADSVKGRFTISRDNAKNTVYLQMNSLKPEDTAVYYCAAVQPGQRTVAYDYWGQGTLVTVSS | high polyreactivity |
| QVQLVESGGGLVQAGGSLRLSCAASGSTFASNAMGWYRQAPGKERELVAAISKRGGSTYYADSVKGRFTISRDNAKNTVYLQMNSLKPEDTSVYYCNADWTRSQYDYWGQGTQVTVSS | high polyreactivity |
| QVQLVESGGGLVQAGGSLRLSCAASGSTFATNTMGWYRQAPGKERELVAAITSGGSTYYADSVKGRFTISRDNAKNTVYLQMNSLKPEDTAVYYCAVRGVYYYHRAFDYWGQGTQVTVSS | high polyreactivity |
| QVQLVESGGGLVQAGGSLRLSCAASGSTFATYTMGWYRQAPGKERELVAAISSRGGSTYYADSVKGRFTISRDNAKNTGYLQMNSLKPEDTAVYYCNARRSTDPARYYWGQGSQVTVSS | high polyreactivity |
| QVQLVESGGGLVQAGGSLRLSCAASGSTFATYTMGWYRQAPGKERELVATISRSGTTTYYADSVKGRFTISRDNAKYTVYLQMNSLKPEDTAVYYCNTLRAYWTYHFYGAVRDGYDYWGQGTQVTVST | low polyreactivity |
